No end group written: not given here.
Key:
[1] = target: melanocortin receptor 2 (MC2R); assay: cell-based or functional assay
[2] = target: melanocortin receptor 2 (MC2R); assay: cell-based or functional assay; remark: listed apart in the source

Chain of melanocortin receptor 2 (MC2R) (Q01718 whole entry): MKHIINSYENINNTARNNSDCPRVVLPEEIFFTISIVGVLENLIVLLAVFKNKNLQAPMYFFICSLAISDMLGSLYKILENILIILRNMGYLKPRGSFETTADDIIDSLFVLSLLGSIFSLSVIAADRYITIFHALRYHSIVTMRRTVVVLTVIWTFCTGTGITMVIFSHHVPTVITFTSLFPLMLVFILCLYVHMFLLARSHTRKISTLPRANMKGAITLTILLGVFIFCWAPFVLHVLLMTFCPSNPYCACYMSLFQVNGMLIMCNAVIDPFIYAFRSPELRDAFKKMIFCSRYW

B1: high-purity ACTH (human sequence SEQ ID NO: 3, 99.88%) (peptide)
peptide: SYSMEHFRWGKPVGKKRRPVKVYPNGAEDESAEAFPLEF
modifications: also: acetate salt
[1]
  activity of high-purity ACTH relative to low-purity ACTH (calcium ion signal, MC2R cells): 1.6 fold
[2]
  EC50(nM), calcium ion signal in CHO-K1 cells expressing MC2R: 180 nM

B2: low-purity ACTH (human sequence SEQ ID NO: 3, 75.72%) (peptide)
peptide: SYSMEHFRWGKPVGKKRRPVKVYPNGAEDESAEAFPLEF
[2]
  EC50(nM), calcium ion signal in CHO-K1 cells expressing MC2R: 288 nM

Reference: patent publication US20220401521A1 (NANJING HANXIN PHARMACEUTICAL TECHNOLOGY, published 2022)
